Measured values from US20200223910A1 (STERLING IP, published 2020).
Where a chain is given by its changes, count along the chain named. In names and notes the source's numbering stands. Values belong to the binder of their own block, whether it stands above or below them.

Columns and labels:
[1] = molecular target: T1, human TNC rCd4-His-FBG (rat; human, UniProt P05540 209-391; P24821 1974-2201, limits assumed); assay: SPR BIAcore T200, 37 C, IgG4 captured on anti-human Fc, rCd4-His-FBG injected, 1:1 fit; relative to theoretical Rmax
T1 construct: domain: domains 3 and 4;domain: FBG; C-terminal FBG fusion made in HEK293F cells; biotinylated in the ELISA and HTRF assays; also called Hu TNC; hTNC; not shown: 6His tag
T1 sequence (chain (part 1 of 2), looked up): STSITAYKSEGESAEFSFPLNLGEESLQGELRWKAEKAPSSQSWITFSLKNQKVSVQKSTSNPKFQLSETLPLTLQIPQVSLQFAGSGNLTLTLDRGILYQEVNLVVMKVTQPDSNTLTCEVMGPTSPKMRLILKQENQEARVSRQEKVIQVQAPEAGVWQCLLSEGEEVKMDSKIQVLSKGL
T1 sequence (chain (part 2 of 2), looked up): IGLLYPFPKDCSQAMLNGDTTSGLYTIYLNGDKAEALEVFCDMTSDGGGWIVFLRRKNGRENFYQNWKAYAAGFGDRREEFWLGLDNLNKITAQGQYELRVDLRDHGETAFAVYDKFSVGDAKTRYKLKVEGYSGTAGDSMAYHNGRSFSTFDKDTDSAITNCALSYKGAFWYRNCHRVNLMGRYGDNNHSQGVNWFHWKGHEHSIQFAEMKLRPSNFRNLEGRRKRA
Procedure: (§1) For the kinetic assay ˜1,500-1,900 response units (RU) of anti-human Fc IgG (GE, BR-1008-39) was immobilised in all flow-cells (FC1-4) on a Series S CM5 sensor chip (BR-1005-30) using EDC/NHS cross-linking chemistry according to the amine coupling kit protocol (GE, BR-1000-50). […] Antibody capture levels ranged typically from 70 RU (for TNR interactions) to 90 RU (for TNC interactions).
(§2) A 1:1 dilution series of antigen in HBS-P+ (30 nM of human and mouse TNC rCd4-His-FBG and 480 nM of human TNR rCd4-His-FBG) was injected with a flow-path via the reference flow cell (FC1 and FC3, respectively) and the antibody capture flow cell (FC2 and FC4, respectively) with a flow rate of 30 μl/min. The association and dissociation phases were measured over a 3.5 and 30 min time period, respectively, for human and mouse TNC rCd4-His-FBG, and 2 and 8 min time period for human TNR rCd4-His-FBG. For interaction analysis with human and mouse TNC rCD4-His-FBG regeneration of free capture antibody surfaces after each antigen injection was done by injection of 3 M MgCl 2 for 60 s and for each sample injection a fresh NSCT antibody was captured. Carry over of antigen was prohibited by an extra needle wash step with 50% DMSO before every injection. Runs were performed at the more physiologically relevant temperature of 37° C.
(§3) Kinetic parameters were determined by reference cell subtraction and fitting the sensorgram experimental data to a 1:1 interaction model using the BIAcore T200 Evaluation software version 2.0.

[2] = molecular target: T2, human TNR rCd4-His-FBG (rat; human, UniProt P05540 209-391; Q92752 1128-1358, limits assumed); assay: as above
T2 construct: domain: domains 3 and 4;domain: FBG; also called Hu TNR; hTNR; not shown: 6His tag
T2 sequence (chain (part 1 of 2), looked up): T1 sequence (chain (part 1 of 2), looked up)
T2 sequence (chain (part 2 of 2), looked up): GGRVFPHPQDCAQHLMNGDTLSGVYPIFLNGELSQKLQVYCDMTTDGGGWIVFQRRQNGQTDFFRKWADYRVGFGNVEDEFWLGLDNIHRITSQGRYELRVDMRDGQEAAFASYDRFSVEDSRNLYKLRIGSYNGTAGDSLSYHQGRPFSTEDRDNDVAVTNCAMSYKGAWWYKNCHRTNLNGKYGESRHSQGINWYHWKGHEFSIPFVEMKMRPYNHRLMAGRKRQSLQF
Procedure: as §1, §2, §3

[3] = molecular target: T3, mouse TNC rCd4-His-FBG (rat; mouse, UniProt P05540 209-391; Q80YX1 1883-2110, limits assumed); assay: as above
T3 construct: domain: domains 3 and 4;domain: FBG; Biotinylated in the capture ELISA; also called Mu TNC; mTNC; not shown: 6His tag
T3 sequence (chain (part 1 of 2), looked up): T1 sequence (chain (part 1 of 2), looked up)
T3 sequence (chain (part 2 of 2), looked up): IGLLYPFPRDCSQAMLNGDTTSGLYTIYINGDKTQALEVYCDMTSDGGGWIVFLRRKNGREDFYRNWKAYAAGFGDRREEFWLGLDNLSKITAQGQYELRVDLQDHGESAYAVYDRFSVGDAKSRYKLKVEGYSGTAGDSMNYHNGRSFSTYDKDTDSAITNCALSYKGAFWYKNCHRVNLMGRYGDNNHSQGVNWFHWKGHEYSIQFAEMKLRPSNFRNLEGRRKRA
Procedure: as §1, §2, §3

[4] = molecular target: T1, human TNC rCd4-His-FBG; assay: SPR BIAcore T200, 37 C, IgG4 captured on anti-human Fc, rCd4-His-FBG injected, 1:1 fit
Procedure: as §1, §2, §3

[5] = molecular target: T2, human TNR rCd4-His-FBG; assay: as above
Procedure: as §1, §2, §3

[6] = molecular target: T3, mouse TNC rCd4-His-FBG; assay: as above
Procedure: as §1, §2, §3

[7] = molecular target: T2, human TNR rCd4-His-FBG; assay: SPR, 37 C, purified IgG4 captured on anti-human Fc
Procedure: (§4) Detailed kinetic parameters were evaluated for the 9 prioritised IgG4 antibodies. Binding characteristics were determined for interaction with human, […] TNC rCD4-His-FBG, and human TNR rCD4-His-FBG. Kinetic assays followed essentially the same protocols as for the off-rate determinations described above, with some modifications as follows. To improve the accuracy of kinetic parameter determination, anti-human Fc IgG was immobilised at lower levels (2229 RU), resulting in a corresponding reduction in the amount of anti-FBG IgG4 captured. Purified anti-FBG IgG4 was diluted to a concentration of 3.5 nM in PBS, pH 7.4, 0.05% Tween-20 and injected into FC2 at a flow rate of 10 μl/min, 60 s contact time. […] Antigens were prepared by doubling dilution in PBS, pH 7.4, 0.05% Tween-20 (highest concentration 100 nM except mouse rCD4-His-FBG which was 7 nM). Assays were performed at 37° C. (30 μl/min, 120 s contact time; mouse rCD4-His-FBGFBG 10 μl/min, 60 s contact time), with both the flow cell and injection chamber equilibrated to this temperature. As before, kinetic parameters were determined by reference cell subtraction and fitting the sensogram experimental data assuming a 1:1 interaction using BIAevaluation software (GE, BR-1005-97).

[8] = molecular target: T1, human TNC rCd4-His-FBG; assay: SPR, 37 C, purified IgG4 captured on anti-human Fc
Procedure: as §4

SA, surface activity [1]: 298% | SA, surface activity [2]: 184% | SA, surface activity [3]: 303% | Kd [4]: 1.24 nM | koff [4]: 0.0042 s⁻¹ | kon [4]: 3.4e+06 M⁻¹ s⁻¹ | Kd [5]: 52.7 nM | koff [5]: 0.059 s⁻¹ | kon [5]: 1.13e+06 M⁻¹ s⁻¹ | Kd [6]: 0.433 nM | koff [6]: 0.004 s⁻¹ | kon [6]: 9.27e+06 M⁻¹ s⁻¹ | fold lower affinity than to human TNC FBG [7]: > 70 fold
B1: IgG4 165_13_C3 (antibody, V domains shown)
VH: QVQLVESGGGLVQPGRSLRLSCAASGFTFDDYAMHWVRQAPGKGLEWVSGISGSGGSTYYADSVKGRFTISRDNAKNSLYLQMNSLRAEDTALYYCAKSYQSDEDAFDIWGQGTMVTVSS
VL: DIQMTQSPASLPTPVGDRVTITCRASQYIQGFLNWYQQKPGKAPKLLIYDASNLETGVPSRFSGSGSGTDFTLTISSLQPEDFATYYCQQSYSTPQTFGQGTKVDIKR
notes: Human IgG4 with hinge modification S241P; also called MAb C3; C3 Mab

Kd [8]: < 1 nM | fold lower affinity than to human TNC FBG [7]: > 70 fold
B2: 160_01_A4 IgG4 (antibody, V domains shown)
VH: EVRLVQSGAEVKKPGASVKVSCKVSGYTLTELSMHWVRQAPGKGLEWMGGFDPEDGETIYAQKFQGRVTMTEDTSTDTAYMELSSLRSEDTAVYYCATAQKETLGNAIWGQGTLVTVSS
VL: B1 VL with P14S, K45R, D50A, N53T, E55Q, T56D, S67Y, Q96W, D105E
